Reference: patent publication US20070298997A1, “Compounds useful in treating diabetic microvascular complications and age-related macular degeneration” (priority 2003, published 2007)

Legend:
[1] = system: vascular permeability in the retina, iris and choroid; assay: Vascular permeability by Evans blue leakage in OIR rats; format: in vivo, Brown Norway rats
Procedure: Next, the effect of kallistatin on vascular permeability was determined. At P14, two days after the rats were returned to normoxia, the OIR rats received an intravitreal injection of 3 μl of kallistatin of concentrations of 2.4, 4.8 and 9.6 mg/ml in the right eye (4 animals per dose group), and the same volume of PBS in the left. Two days after the kallistatin injection (P16), vascular permeability was measured by the Evans blue leakage method. […] Kallistatin injection decreased vascular permeability in a dose-dependent manner in the retina, iris and choroid of the hyperoxia-treated rats (FIG. 6).
Measurement of vascular permeability: Vascular permeability was quantified by measuring albumin leakage from blood vessels into the retina, iris and choroid using Evans blue following a documented protocol (Xu et al., 2001) with minor modifications. Evans blue dye (Sigma, St. Louis, Mo.) was dissolved in normal saline (30 mg/ml), sonicated for 5 min and filtered through a 0.45-μm filter (Millipore, Bedford, Mass.). The rats were anesthetized, and Evans blue (30 mg/kg) was injected over 10 seconds through the femoral vein using a glass capillary under microscopic inspection. Evans blue non-covalently binds to plasma albumin in the blood stream (Radius et al., 1980). Immediately after Evans blue infusion, the rats turned visibly blue, confirming their uptake and distribution of the dye. The rats were kept on a warm pad for 2 h to ensure the complete circulation of the dye. Then the chest cavity was opened, and the rats were perfused via the left ventricle with 1% paraformaldehyde in citrate buffer (pH=4.2) which was pre-warmed to 37° C. to prevent vasoconstriction. The perfusion lasted 2 min under the physiological pressure of 120 mmHg to clear the dye from the vessel. Immediately after perfusion, the eyes were enucleated and the retina, iris and choroid were carefully dissected under an operating microscope. Evans blue dye was extracted by incubating each sample in 150 μl formamide for 18 h at 70° C. The extract was centrifuged (TL; Beckman) at 70,000 rpm (Rotor type: TLA 100.3) for 20 min at 4° C. Absorbance was measured using 100 μl of the supernatant at 620 nm. The concentration of Evans blue in the extracts was calculated from a standard curve of Evans blue in formamide and normalized by the total protein concentration in each sample. Results were expressed in micrograms of Evans blue per milligrams of total protein content.

VEGF binding to RCEC = assay: VEGF binding assay (125I-VEGF); set-up: species or system bovine; conditions: 1 h, 0.5, 5 and 50 μg competitor (VEGF:kallistatin 1:5, 1:50, 1:500)
Procedure: FIG. 8 illustrates inhibition of VEGF binding to RCEC by kallistatin. […] To determine the competition between kallistatin and VEGF in RCEC binding, ^125I-VEGF was added to RCEC together with 0.5, 5 and 50 μg of unlabeled kallistatin to result in VEGF:kallistatin molar ratios of 1:5, 1:50 and 1:500, respectively.
VEGF binding assay: VEGF (PeproTech, Inc., Rocky Hill, N.J.) was labeled with 125I using the Chloromine T ^125I Labeling Kit (ICN Pharmaceuticals, Inc. Costa Mesa, Calif.) following a protocol recommended by the manufacturer. For the binding assay, RCEC were seeded in 12-well plates and cultured until 80% confluency was reached. The culture medium was replaced with serum-free medium. ^125I-VEGF was added to the medium, 2.5×10^5 CPM/well with and without different concentrations of kallistatin or recombinant plasminogen kringle 5 (K5) and incubated with the cells for 1 h. The medium was removed and cells washed three times with PBS. The cells were then lysed by the addition of 0.35 ml 10% SDS. The cell lysates were collected, and the 125I-VEGF bound to RCEC was quantified by a gamma counter.

VEGF = assay: Retinal VEGF levels in OIR rats by Western blot; format: in vivo, Brown Norway rats; conditions: intravitreal injection of 25 μg, P<0.01
Procedure: The effect of kallistatin on VEGF expression was also examined in vivo. After intravitreal injection of 25 μg kallistatin, VEGF levels were determined in the retina with OIR.
Induction of retinal neovascularization and intravitreal injection of kallistatin: Retinal neovascularization was induced as described by Smith et al. (Smith et al., 1994) with some modifications. Briefly, newborn pigmented Brown Norway rats at postnatal day 7 (P7) were exposed to hyperoxia (75% O2) for 5 days and then normoxia. Animals were anesthetized, and kallistatin was injected into the vitreous of the right eye through the pars plana using a glass capillary. The left eye received the same volume of PBS as the control. After injection, the animals were kept in normoxia for another 5 days for further analyses.
Western blot analysis: One hundred micrograms of total protein were used for Western blot analysis of VEGF using an ECL detection kit (Amersham International plc, Piscataway, N.J.) (Gao et al., 2001). The same membrane was stripped and re-blotted with an antibody specific to β-actin. VEGF levels were normalized by β-actin.

[2] = 3 μl of 4.8 mg/ml intravitreal, P<0.05
[3] = 3 μl of 9.6 mg/ml intravitreal at P14, measured P16, P<0.01

B1: kallistatin: Recombinant His-tagged rat kallistatin (serpin, SEQ ID NO:1) expressed in E. coli and affinity-purified (protein, listed as Homo sapiens)
chain: DGILGRDTLPHEDQGKGRQLHSLTLASINTDFTLSLYKKLALRNPDKNVVFSPLSISAALAILSLGAKDSTMEEILEVLKFNLTEITEEEIHHQGFGHLLQRLSQPEDQAEINTGSALFIDKEQPILSEFQEKTRALYQAEAFVADFKQCNEAKKFINDYVSNQTQGKIAELFSELDERTSMVLVNYLLFKGKWKVPFNPNDTFESEFYLDEKRSVKVPMMKIKDLTTPYIRDEELSCSVLELKYTGNASALFILPDQGKMQQVESSLQPETLKKWKDSLRPRIISELRMPKFSISTDYNLEEVLPELGIRKIFSQQADLSRITGTKNLHVSQVVHKAVLDVDETGTEGAAATAVTAALKSLPQTIPPLNFNRPFMLVITDNNGQSVFFMGKVTNPM
modifications: His tag
With B1 the “vascular permeability, choroid” value ([1]; 3 μl of 2.4 mg/ml intravitreal) was “did not show any significant effect”, the “vascular permeability, iris” value ([1]; 3 μl of 2.4 mg/ml intravitreal) was “did not show any significant effect” and the “vascular permeability, retina” value ([1]; 3 μl of 2.4 mg/ml intravitreal) was “did not show any significant effect”. For the same molecule, the “vascular leakage, choroid” value ([1]; 3 μl of 4.8 mg/ml intravitreal) was “not in the choroid”, the “vascular leakage, iris” value [1, 2] was “significantly decreased vascular leakage” and the “vascular leakage, retina” value [1, 2] was “significantly decreased vascular leakage”. The “vascular permeability, iris” value [1, 3] was “significant decrease in permeability”, the “vascular permeability, retina” value [1, 3] was “significant decrease in permeability” and the “vascular permeability, choroid” value ([1]; 3 μl of 9.6 mg/ml intravitreal at P14, measured P16, P<0.05) was “significant decrease in permeability”. The “VEGF bound to RCEC” value (VEGF binding to RCEC) was “decreased in a kallistatin concentration-dependent manner” and the “retinal VEGF levels, % of the control” value (VEGF) was ~35 % of the control.
